Biological target: tetraubiquitin chain (Homo sapiens, UniProt P0CG48, tetraubiquitin chain, N-terminal Dylight550-labeled ubiquitin)
Experiment: single-molecule TIRF dwell time

Kd: 210 nM
B1: 26S proteasome (protein)
chain 1: MVLESTMVCVDNSEYMRNGDFLPTRLQAQQDAVNIVCHSKTRSNPENNVGLITLANDCEVLTTLTPDTGRILSKLHTVQPKGKITFCTGIRVAHLALKHRQGKNHKMRIIAFVGSPVEDNEKDLVKLAKRLKKEKVNVDIINFGEEEVNTEKLTAFVNTLNGKDGTGSHLVTVPPGPSLADALISSPILAGEGGAMLGLGASDFEFGVDPSADPELALALRVSMEEQRQRQEEEARRAAAASAAEAGIATTGTEDSDDALLKMTISQQEFGRTGLPDLSSMTEEEQIAYAMQMSLQGAEFGQAESADIDASSAMDTSEPAKEEDDYDVMQDPEFLQSVLENLPGVDPNNEAIRNAMGSLASQATKDGKKDKKEEDKK
chain 2: TTSGALFPSLVPGSRGASNKYLVEFRAGKMSLKGTTVTPDKRKGLVYIQQTDDSLIHFCWKDRTSGNVEDDLIIFPDDCEFKRVPQCPSGRVYVLKFKAGSKRLFFWMQEPKTDQDEEHCRKVNEYLNNPPMPGALGASGSSGHELSALGGEGGLQSLLGNMSHSQLMQLIGPAGLGGLGGLGALTGPGLASLLGSSGPPGSSSSSSSRSQSAAVTPSSTTSSTRATPAPSAPAAASATSPSPAPSSGNGASTAASPTQPIQLSDLQSILATMNVPAGPAGGQQVDLASVLTPEIMAPILANADVQERLLPYLPSGESLPQTADEIQNTLTSPQFQQALGMFSAALASGQLGPLMCQFGLPAEAVEAANKGDVEAFAKAMQNNAKPEQKEGDTKDKKDEEEDMSLD

— PMC4450770 (2016)
